Assay results reported in patent publication US9523084B2, “Phosphodeoxyribosyl transferase mutant enzymes and uses thereof” (Centre National De La Recherche Scientifique, priority 2012, dated 2016).

Assays:
[1] = substrate: Nc1ccn([C@H]2C[C@H](O)[C@@H](COP(=O)(O)O)O2)c(=O)n1; experiment: Kinetic parameters of PDT variants with deoxycytidine 5'-mono, -di and -triphosphate as donors and adenine as acceptor; format: biochemical, Lactobacillus leichmannii; conditions: 37.0 °C; for Km: adenine as acceptor, fixed
Experimental: (§1) The standard assay (“first protocol for enzyme assay”) for the different NDTs consisted of 5-15 μg of NDT in 50 mM MES buffer pH 6.0, dNxP (dNMP, or dNDP or dNTP) 3 mM and a base 1 mM in a total volume of 50 μL. Assays were incubated for 60 min at 37° C. The products of the reactions were analyzed each 7 min by Rapid resolution high performance liquid chromatography using a reverse-phase column (ZORBAX Eclipse XDB-C18 2.1*50 mm 1.8 μM) with a flow rate of 0.25 ml/min and a linear gradient of 1-12% CH3CN (2-25% CH3CN or 1-90% CH3CN) in 20 mM triethylammonium acetate, pH 7.5, buffer for 7 min. The low resolution mass spectra of the newly synthesized deoxyribonucleotides were obtained on an Agilent 1200 series LC/MS 6120 quadrupole system using an atmospheric electrospray ionization system.
This hypothesis was confirmed by monitoring the specific activity, in the presence of dCDP or dCTP as donor and adenine as acceptor (see table 2 above). The kinetic parameters were determined for the best variants with dCMP, dCDP and dCTP as substrates, at a concentration of A being fixed (see table 3 below).

[2] = substrate: Nc1ncnc2c1ncn2[C@H]1C[C@H](O)[C@@H](COP(=O)(O)OP(=O)(O)OP(=O)(O)O)O1; experiment: Spectrophotometric assay coupled to xanthine oxidase, dATP + C ⇄ dCTP + A; format: biochemical, Lactobacillus leichmannii; conditions: 50 mM MES pH6.0, 37° C., pH 6.0
Experimental: (§2) Further, the cinetic parameters of these mutant enzymes were analysed, using a specific spectrophotometric assay. Briefly, the assay consists in measuring the formation of the final product (2,8 dihydroxyadenine) of the reaction:
(§3) Briefly, the assay was performed using the coupling of two enzymes: the variant (PDTT2, PDTT4, PDTT5, PDTT6, or PDTT7) to be tested and xanthine oxidase (obtained from Roche). The reaction mixture contained varying concentrations of dATP, 1 mM cytosine in a 50 mM MES buffer pH6.0 at 37° C. The reaction was initiated by adding 30 units of the purified variant to be tested and xanthine oxidase (Roche). The released adenine was then oxidized in 2,8-dihydroxyadenine which absorbs at 301 nm. The formation (i.e. concentration) of 2,8 dihydroxyadenine was measured by spectrophotometry.

[3] = Catalytic activity of PDTT2 to PDTT7, dATP formed (HPLC); format: biochemical; conditions: dCTP + A ⇄ dATP + C; 2 mM dCTP, 1 mM Adenine, 37° C., MES 50 mM pH6.0
Experimental: In specific cases, an alternative protocol was used to perform the enzyme assay. In this second protocol, the dNxP (dNMP, or dNDP or dNTP) concentration was of only 2 mM, instead of 3 mM. All of the other conditions were identical to those of the first protocol.
The catalytic activity of the mutant enzymes PDTT2, PDTT3, PDTT3b, PDTT4, PDTT5, PDTT6, PDTT7 has been compared. Briefly, a sufficient amount of enzyme mutant necessary to obtain a linear reaction over a period of one hour at 37° C. has been mixed in 2 mM dCTP and 1 mM Adenine in a final volume of 50 μL of MES buffer 50 mM pH6.0. Assays were incubated for 60 min at 37° C. The products of the reactions were analyzed each 7 min by Rapid resolution high performance liquid chromatography using a reverse-phase column (ZORBAX Eclipse XDB-C18 2.1*50 mm […]) with a flow rate of 0.25 ml/min and a linear gradient of 1-12% CH3CN (2-25% CH3CN or 1-90% CH3CN) in 20 mM triethylammonium acetate, pH 7.5, buffer for 7 min.

[4] = Standard enzyme assay (HPLC): specific activities of PDT variants with natural purines and pyrimidines; format: biochemical; conditions: donor 3 mM, acceptor 1 mM
Experimental: as §1
Unless specifically mentioned, the results presented hereafter have been obtained by using the first protocol for performing the enzyme assay.

[5] = In vitro synthesis of deoxynucleotide analogues: specific activities; format: biochemical
Experimental: as §1
The donor concentration was 3 mM and the acceptor 1 mM except for dCTP 2 mM 5-BrU 1 mM and dAMP 2 mM 5-FU 1 mM. Activities are expressed in nanomoles of deoxynucleotides synthesized per min per mg of protein.

[6] = Spectrophotometric assay coupled to xanthine oxidase (2,8-dihydroxyadenine at 301 nm); format: biochemical; conditions: dATP + C ⇄ dCTP + A; 1 mM cytosine, 50 mM MES pH6.0, 37° C.
Experimental: as §2, §3

B1: Lactobacillus leichmannii nucleoside deoxyribosyltransferase (NDT, SEQ ID NO:1) variant PDTT1, R13 G92 T93 S123 K157 (F13R/D92G/V93T/N123S/Y157K), SEQ ID NO:9 … (protein)
chain: MPKKTIYFGAGWRTDRQNKAYKEAMEALKENPTIDLENSYVPLDNQYKGIRVDEHPEYLHDKVWATATYNNDLNGIKTNDIMLGVYIPDEEGTGLGMELGYALSQGKYVLLVIPDEDYGKPISLMSWGVSDNVIKMSQLKDFNFNKPRFDFYEGAVK
notes: homohexamer (108 kDa)
Which kcat ([1]; other: PDTT1, first line, adenine acceptor, molecular mass of 108 kDa) does the source give for B1 here?
The kcat was 0.46 s⁻¹.

What about the Km ([1]; other: PDTT1, first line) of the same molecule?
Its Km is 4100 µM.

And the Km ([1]; other: PDTT1, second line of the table)?
Its Km is 8900 µM.

What about the Km ([1]; other: PDTT1, third line of the table) of the same molecule?
The Km was 5500 µM.

B2: Lactobacillus leichmannii nucleoside deoxyribosyltransferase (NDT, SEQ ID NO:1) variant PDTT4, R13 Q91 G92 S93 S123 K157 (F13R/E91Q/D92G/V93S/N123S/Y157K), SEQ … (protein)
chain: MPKKTIYFGAGWRTDRQNKAYKEAMEALKENPTIDLENSYVPLDNQYKGIRVDEHPEYLHDKVWATATYNNDLNGIKTNDIMLGVYIPDEQGSGLGMELGYALSQGKYVLLVIPDEDYGKPISLMSWGVSDNVIKMSQLKDFNFNKPRFDFYEGAVK
notes: xanthine oxidase is coupling enzyme only
For B2, which Km ([2]; other: PDTT4, 1 mM cytosine) is on record?
The Km was 2300 µM.

And the kcat ([2]; other: PDTT4, 1 mM cytosine)?
Its kcat is 8.8 s⁻¹.

What about the kcat/Km ([2]; other: PDTT4, 1 mM cytosine) of the same molecule?
Its kcat/Km is 3800 M⁻¹ s⁻¹.

B3: Lactobacillus leichmannii nucleoside deoxyribosyltransferase (NDT, SEQ ID NO:1) variant PDTT5, R13 Q91 G92 P93 S123 R157 (F13R/E91Q/D92G/V93P/N123S/Y157R), SEQ … (protein)
chain: MPKKTIYFGAGWRTDRQNKAYKEAMEALKENPTIDLENSYVPLDNQYKGIRVDEHPEYLHDKVWATATYNNDLNGIKTNDIMLGVYIPDEQGPGLGMELGYALSQGKYVLLVIPDEDYGKPISLMSWGVSDNVIKMSQLKDFNFNKPRFDFYEGAVR
notes: as for B2
With B3 as the molecule, how does the Km ([2]; other: PDTT5, 1 mM cytosine) read?
The Km was 200 µM.

What about the kcat ([2]; other: PDTT5, 1 mM cytosine) of the same molecule?
The kcat was 8.78 s⁻¹.

And the kcat/Km ([2]; other: PDTT5, 1 mM cytosine)?
Its kcat/Km is 42800 M⁻¹ s⁻¹.

B4: PDTT2: NDT mutant R13 Q91 G92 T93 S123, SEQ ID NO:10 (protein)
chain: MPKKTIYFGAGWRTDRQNKAYKEAMEALKENPTIDLENSYVPLDNQYKGIRVDEHPEYLHDKVWATATYNNDLNGIKTNDIMLGVYIPDEQGTGLGMELGYALSQGKYVLLVIPDEDYGKPISLMSWGVSDNVIKMSQLKDFNFNKPRFDFYEGAVY
modifications: PDTT2 enzyme mutant
Which “Catalytic activity (nmol of dATP formed/min/mg of enzyme protein)” value [3] does the source give for B4 here?
Its value is 9.6 nmol of dATP formed/min/mg of enzyme protein.

And the Specific activity ([4]; dADP + C ⇄ dCDP + A)?
The Specific activity was 8 nanomoles of deoxynucleotides synthesized per min per mg of protein.

And the Specific activity ([4]; dADP + Hx ⇄ dIDP + A)?
The Specific activity was <0.1 nanomoles of deoxynucleotides synthesized per min per mg of protein.

What about the Specific activity ([4]; dAMP + C ⇄ dCMP + A) of the same molecule?
The Specific activity was 31 nanomoles of deoxynucleotides synthesized per min per mg of protein.

And the Specific activity ([4]; dAMP + Hx ⇄ dIMP + A)?
The Specific activity was <0.1 nanomoles of deoxynucleotides synthesized per min per mg of protein.

And the Specific activity ([4]; dATP + C ⇄ dCTP + A)?
The Specific activity was 15 nanomoles of deoxynucleotides synthesized per min per mg of protein.

And the Specific activity ([4]; dATP + Hx ⇄ dITP + A)?
The Specific activity was <0.1 nanomoles of deoxynucleotides synthesized per min per mg of protein.

What about the Specific activity ([4]; dCDP + A ⇄ dADP + C) of the same molecule?
The Specific activity was 66 nanomoles of deoxynucleotides synthesized per min per mg of protein.

What about the Specific activity ([4]; dCDP + U ⇄ dUDP + C (U used as acceptor base instead of T)) of the same molecule?
Its Specific activity is 8 nanomoles of deoxynucleotides synthesized per min per mg of protein.

What about the Specific activity ([4]; dCMP + A ⇄ dAMP + C) of the same molecule?
The Specific activity was 286 nanomoles of deoxynucleotides synthesized per min per mg of protein.

What about the Specific activity ([4]; dCMP + T ⇄ dTMP + C) of the same molecule?
The Specific activity was 1.1 nanomoles of deoxynucleotides synthesized per min per mg of protein.

And the Specific activity ([4]; dCTP + A ⇄ dATP + C)?
The Specific activity was 51 nanomoles of deoxynucleotides synthesized per min per mg of protein.

What about the Specific activity ([4]; dCTP + T ⇄ dTTP + C) of the same molecule?
The Specific activity was 1.4 nanomoles of deoxynucleotides synthesized per min per mg of protein.

And the Specific activity ([4]; dGDP + A ⇄ dADP + G)?
The Specific activity was 33 nanomoles of deoxynucleotides synthesized per min per mg of protein.

What about the Specific activity ([4]; dGMP + A ⇄ dAMP + G) of the same molecule?
The Specific activity was 50 nanomoles of deoxynucleotides synthesized per min per mg of protein.

What about the Specific activity ([4]; dGTP + A ⇄ dATP + G) of the same molecule?
Its Specific activity is 36 nanomoles of deoxynucleotides synthesized per min per mg of protein.

What about the Specific activity ([5]; dAMP + 5-FU → A + 5-F-dUMP, dAMP 2 mM 5-FU 1 mM) of the same molecule?
The Specific activity was 48.4 nanomoles of deoxynucleotides synthesized per min per mg of protein.

What about the Specific activity ([5]; dCMP + 2,6-D → C + 2,6-DMP, donor 3 mM, acceptor 1 mM) of the same molecule?
Its Specific activity is 95.8 nanomoles of deoxynucleotides synthesized per min per mg of protein.

What about the Specific activity ([5]; dCMP + 2,6-chloropurine → C + 2,6-dichloropurine 2′-deoxyribose 5′-monophosphate, donor 3 mM, acceptor 1 mM) of the same molecule?
Its Specific activity is 37 nanomoles of deoxynucleotides synthesized per min per mg of protein.

What about the Specific activity ([5]; dCMP + 5-BrU → C + 5-Br-dUMP, donor 3 mM, acceptor 1 mM) of the same molecule?
The Specific activity was 10.7 nanomoles of deoxynucleotides synthesized per min per mg of protein.

And the Specific activity ([5]; dCMP + 6-chloropurine → C + 6-chloropurine 2′-deoxyribose 5′-monophosphate, donor 3 mM, acceptor 1 mM)?
The Specific activity was 75 nanomoles of deoxynucleotides synthesized per min per mg of protein.

What about the Specific activity ([5]; dCTP + 2,6-D → C + 2,6-DTP, donor 3 mM, acceptor 1 mM) of the same molecule?
The Specific activity was 17 nanomoles of deoxynucleotides synthesized per min per mg of protein.

What about the Specific activity ([5]; dCTP + 2,6-chloropurine → C + 2,6-dichloropurine 2′-deoxyribose 5′-triphosphate, donor 3 mM, acceptor 1 mM) of the same molecule?
The Specific activity was 14 nanomoles of deoxynucleotides synthesized per min per mg of protein.

What about the Specific activity ([5]; dCTP + 5-BrU → C +5-Br-dUTP, dCTP 2 mM 5-BrU 1 mM) of the same molecule?
Its Specific activity is 12 nanomoles of deoxynucleotides synthesized per min per mg of protein.

And the Specific activity ([5]; dCTP + 5-FU → C + 5-F-dUTP, donor 3 mM, acceptor 1 mM)?
The Specific activity was 39.4 nanomoles of deoxynucleotides synthesized per min per mg of protein.

And the Specific activity ([5]; dCTP + 6-chloropurine → C + 6-chloropurine 2′-deoxyribose 5′-triphosphate, donor 3 mM, acceptor 1 mM)?
The Specific activity was 15 nanomoles of deoxynucleotides synthesized per min per mg of protein.

And the Specific activity ([5]; dCTPαS + A → C + dATPαS, donor 3 mM, acceptor 1 mM)?
Its Specific activity is 54 nanomoles of deoxynucleotides synthesized per min per mg of protein.

B5: PDTT6: PDTT4 mutant with Arginine at position 157, SEQ ID NO:43 (protein)
chain: MPKKTIYFGAGWRTDRQNKAYKEAMEALKENPTIDLENSYVPLDNQYKGIRVDEHPEYLHDKVWATATYNNDLNGIKTNDIMLGVYIPDEQGSGLGMELGYALSQGKYVLLVIPDEDYGKPISLMSWGVSDNVIKMSQLKDFNFNKPRFDFYEGAVR
modifications: amino acid sequence of PDTT6 (G92/S123/R13/S93/R157/Q91)
For B5, which “Catalytic activity (nmol of dATP formed/min/mg of enzyme protein)” value [3] is on record?
Its value is 18.6 nmol of dATP formed/min/mg of enzyme protein.

What about the Km [6] of the same molecule?
The Km was 500 µM.

And the kcat [6]?
The kcat was 10 s⁻¹.

B6: PDTT7: PDTT3b mutant with Arginine at position 157, SEQ ID NO:42 (protein)
chain: MPKKTIYFGAGWRTDRQNKAYKEAMEALKENPTIDLENSYVPLDNQYKGIRVDEHPEYLHDKVWATATYNNDLNGIKTNDIMLGVYIPDEQGGGLGMELGYALSQGKYVLLVIPDEDYGKPISLMSWGVSDNVIKMSQLKDFNFNKPRFDFYEGAVR
modifications: amino acid sequence of PDTT7 (G92/S123/R13/G93/R157/Q91)
Which “Catalytic activity (nmol of dATP formed/min/mg of enzyme protein)” value [3] does the source give for B6 here?
The value was 17.9 nmol of dATP formed/min/mg of enzyme protein.

And the Km [6]?
The Km was 2600 µM.

And the kcat [6]?
The kcat was 10 s⁻¹.
